For 130 substances, amyloid nucleation score results are on record in the supplement of paper PMC12042874.

± gives the uncertainty stated by the source.

The series can be described thus: amyloid nucleation score (Sup35N fusion, yeast selection) (log enrichment); library NNK3; higher = more nucleation; inactive = no reads after selection. In outline: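 DiMSum was used to calculate nucleation scores as log enrichment of output over input reads, centred on the mode score of non-aggregating sequences. Sequences with fewer than 100 input reads were not scored. Input and output came from Illumina sequencing of plasmid inserts in psi-negative yeast expressing peptides of 20 random codons fused to Sup35N, induced 24 hours with 100 μM copper sulfate and then grown 7 days at 30°C on medium lacking adenine and uracil.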
As to FSGRYGTRLPLYSGRFKWFI, the amyloid nucleation score entry is “inactive”. For FSGSTSLCLMMRYTSTVR the value was 0.359 ± 0.25; for FSILCKLVLRQLKNGSFYGF, -0.329 ± 0.77. For FSIPPFTRTCLKNGLHYSVR the value was -0.759 ± 0.88; for FSIQSRCAVGWLSIGSVTAR, “inactive”; for FSRGVCTSYLSVRYGLCSTE, “inactive”. The entry for FSRTRVTLV is “inactive”; for FSSKDRLGSHSRYYFYCATL it is “inactive”. With FSSRDWNYSSRMVKIRNGRF, the amyloid nucleation score result is “inactive”. For FSSRHVTPCIRINFNIVSCS the value was “inactive”; for FSTWNKRRMLYRHSGLFRQS, “inactive”; for FSVFPLFVTGFQDILWVDLL, “inactive”. The entry for FSYEMFNAMGYFPIASLCSF is “inactive”; for FTESVASYELAQVVSRSMLC it is “inactive”. The entry for FTFCTCAKSAWTGLGLQGKI is “inactive”; for FTFWWDRLQNWKHIGFFGKV it is 1.06 ± 0.12; for FTIGNTA it is “inactive”.

Consider FTKLYELSDMHISYTRS, for which the amyloid nucleation score entry is “inactive”.

Take FTKSREWGFMDKPAINWVSC: the amyloid nucleation score entry is “inactive”.

Take FTLARAMPLGYSQGIMKSRG: the amyloid nucleation score entry was “inactive”. For FTMMCVYMSWQSGSQRTVTI the value was “inactive”. For FTMNQGSDVEVFLSSMF the value was “inactive”; for FTNFCS, “inactive”; for FTSYRSEPTIYALLCLGLSL, 2.08 ± 0.093. For FTVYCF the value was “inactive”; for FTYVNSHECWLVKDMVAYFL, 3 ± 0.073. Consider FVAADSPGVSSFKAN, for which the amyloid nucleation score entry is “inactive”. The entry for FVASDLLFGVRDQSVFSLSQ is “inactive”; for FVCFIKLRLVDSRIVTNFQR it is “inactive”; for FVCKMVMIRRGDTWKVSKVV it is “inactive”.

On to FVDLSSIDYVF, for which the amyloid nucleation score entry is “inactive”. The entry for FVEISRSGLLWFDF is “inactive”; for FVERMVLVLV it is “inactive”. The entry for FVIFW is “inactive”. For FVISYELWAVSERNWSFEMR, the amyloid nucleation score entry was “inactive”. As to FVLFGGWLPRVQRLSLGTGR, the amyloid nucleation score result was “inactive”. On to FVLQFSSGCYFGPD, for which the amyloid nucleation score entry was “inactive”.

Turning to FVLVGL, the amyloid nucleation score entry is “inactive”. In the case of FVMTIM, the amyloid nucleation score result was “inactive”. Turning to FVNSRVLWMIKIC, the amyloid nucleation score entry is “inactive”. For FVPNVRLTDLWRANKGIVSH the value was 0.404 ± 0.38; for FVQSGLFFMCDGSCGLLRVF, “inactive”. In the case of FVRIHVGSSTGIF, the amyloid nucleation score result is “inactive”.

Substance FVSGDSNTIIQPMAYNMDSK registered an amyloid nucleation score of -0.282 ± 0.42. For FVSVDGWSESMWLASVVLSE the value was “inactive”; for FVTIRGVRRTCNPFKGINYG, “inactive”; for FVVFCRNPNSGLGNCTVSCD, “inactive”. The entry for FVVFIRDIICMVNNFMLMRM is “inactive”; for FVVRIKYTGSDLRLFRMVSF it is “inactive”. For FVVSKLYMPRWASLLLCWRL the value was “inactive”.

On to FVYILGTMMNRRGFDPWIGD, for which the amyloid nucleation score turned out to be 0.631 ± 0.32. The figure for FWGVSDGFMC is -0.141 ± 0.96; for FWIWIWRIWYDGNEDNLDHF it is “inactive”; for FWKAFRFTDSVFPIKHPNLS it is “inactive”. The entry for FWLGGVDLAPKVGKQTMNLA is “inactive”; for FWRLRWYMRDGFSDYSGGEY it is 0.719 ± 0.13. As to FWSPGYTIVTVTLNGLVPW, the amyloid nucleation score result was “inactive”. The entry for FWSSLAVQRACKCMGGFCDL is “inactive”; for FWSWNVWLRSGSPAISFHK it is “inactive”; for FWTKFC it is “inactive”.

With FYDLFN, the amyloid nucleation score entry is “inactive”. As for FYFVGKYWRGDEYFDFRLAV, the amyloid nucleation score entry was “inactive”.

As to FYGHQVNISGDNGVRTRPEV, the amyloid nucleation score result was “inactive”. The entry for FYHNNYINANHVWRKSY is “inactive”; for FYICYLNPNQQLFVLN it is 1.27 ± 0.1.

In the case of FYILCHHKDCNIGHPILGGK, the amyloid nucleation score result is “inactive”.

Regarding FYLYLDHVKVNWSRS, the amyloid nucleation score turned out to be 0.989 ± 0.15. For FYNVRF the value was “inactive”. For FYSLWRNRYNNSNQEWDIRW the value was “inactive”; for FYSMSLVSFCFYGDLYLDNG, 2.76 ± 0.077; for FYSNPNIVGFLMLLVYILEP, “inactive”. The entry for FYVLNMNDLTSGLDMHVKS is “inactive”; for FYYWVGFCAGKAEDFRDLLC it is “inactive”; for FYYYDLYYGRVFRDSPYSMS it is “inactive”. Turning to GAFSEDFRESGLFLNVREGE, the amyloid nucleation score result is “inactive”.

As to GAGYADICPTAFHMPRWVFN, the amyloid nucleation score result is “inactive”. The entry for GAIWERLDIREM is “inactive”; for GAMCIRWEG it is “inactive”; for GAPGLMFVFLKKSVFLYSYL it is “inactive”. Turning to GASGCLSWHFGLIV, the amyloid nucleation score result was “inactive”. For GASNMFHDPELSG the value was “inactive”; for GAVRMVETTMYFLFTMPSGS, 0.359 ± 0.24; for GCGSYSDQGRCSTSVSVC, “inactive”. For GCHFLH the value was “inactive”. For GCIIGCQLDKYGPAMPSARE the value was 0.632 ± 0.3; for GCIMEEKFLRMDFDVVSEYN, “inactive”. The substance GCNRVIYKRI displayed an amyloid nucleation score of -0.609 ± 1.2. For GCVRGCTATWRMLCAGSKCC the value was 0.71 ± 0.33.

As for GCVSGRHDNTFRDYD, the amyloid nucleation score entry was “inactive”.

In the case of GDEWGSFLECFITITSSIND, the amyloid nucleation score entry was “inactive”. The entry for GDFYASGSPVKFVRVGMDEC is “inactive”; for GDHSDWRKRGSLLNGVVLCV it is -0.5 ± 1.5; for GDILGHRRHSVVRSRRQSLT it is “inactive”. For GDLSS the value was “inactive”; for GDNHSQD, 0.37 ± 0.16. For the substance GDQFQAMHVWNLPDVDYYVH, the amyloid nucleation score result is “inactive”.

With GDSCCDRLYLFFGVWCVRAV, the amyloid nucleation score entry is “inactive”. For GDSIRSWNRGAVEIA the value was -0.377 ± 1.5; for GDSLGGTYYLLRSFFCCRDL, “inactive”; for GDSLMMYQQDWISEVLICLA, “inactive”. The figure for GDVIMCFNFRTFLSTITPGS is 1.96 ± 0.092. The entry for GEILSGITTLGVYYSYVWHL is “inactive”; for GESAKDVFGSLCRRLISIQL it is “inactive”; for GESNVFILSAFNFNALVGFS it is “inactive”. With GEVNTAFYSWPAMPVLADYG, the amyloid nucleation score entry was “inactive”. For GFGFRAVMPMLYFEYYGQR the value was 0.793 ± 0.12; for GFRMGLTHCHSALKEFRFCH, “inactive”. In the case of GFSYSWNLFILFGQQICWIW, the amyloid nucleation score entry was “inactive”. The entry for GFTVMDPIV is “inactive”; for GFVFQVYPQFVWVPPTTSRQ it is 1.2 ± 0.18; for GFYLVKSSMSWVANWCGKHT it is “inactive”. For GGCDL the value was “inactive”; for GGEGHSEVRRKTPGITCACI, “inactive”; for GGFRISHSIC, “inactive”. For GGKSVLLTFFQWLP the value was 0.56 ± 0.2; for GGMYKNWGCWLELLGKTLPW, “inactive”. For the substance GGQGIYMY, the amyloid nucleation score entry was “inactive”. The entry for GGRDNTEIDVMTWRRRPGKS is “inactive”; for GGSLGHSRLSKDVSVEESAW it is “inactive”.

With GGVRPVKYGSVWVYRFWDQC, the amyloid nucleation score result was “inactive”.

As to GGVTFYMYCIRLVNDQQGHR, the amyloid nucleation score is 1.21 ± 0.098. For GGYQAQTWL the value was “inactive”; for GHISGTESCNI, “inactive”. For GHPGNSAEADKCGHRQRRP the value was “inactive”. For GHSHCMNSVLHSNMSLNTVI the value was “inactive”; for GHVSTCPNDGAAALSCLELF, “inactive”. On to GICHSSRCWGTSENGNWLRI, for which the amyloid nucleation score entry was “inactive”. For GIFEFKLNSLNSNERGLRAG the value was “inactive”. For GIGLCVGYE the value was “inactive”. For GILCVEMSVTSLGLIIETYF the value was “inactive”.
